Test results taken from article PMC10541012.

Assays:
Cdh1 [1] = biological target: Cdh1 (UniProt P53197); test: FLAG-bead in vitro Co-IP, immunoblot; details: reference: wild type FLAG-Set1; sites S228
Cdh1 [2] = biological target: Cdh1 (UniProt P53197); test: FLAG-bead in vitro Co-IP after Cla4; details: reference: wild type FLAG-Set1, Cla4-treated; sites S228

Row | binding against the reference (Cdh1 [1]) | binding against the reference (Cdh1 [2]) | Substance
1 | stronger | – | Set1 (from UniProt P38827) FLAG-Set1-S228A
2 | – | stronger | Set1 (from UniProt P38827) FLAG-Set1-S228A, Cla4-treated
